The values that follow come from patent US20260263580A1.

The target of test [1] is DBNcc-HI E1/E2 complexes from lysates of HEK293 cells transfected with an E1/E2 expression plasmid (hepatitis C virus genotype 3a, strain DBNcc-HI) (UniProt Q81258). Nature of the test: ELISA on lectin-captured E1/E2 complexes, negative control (FIG. 11). (In general: ELISA stands for enzyme-linked immunosorbent assay.)
Test [2] concerns the target J6cc-HI E1/E2 complexes from lysates of HEK293 cells transfected with an E1/E2 expression plasmid (hepatitis C virus genotype 2a, strain J6cc-HI) (UniProt P26660). Described as above.
In test [3] the target is TNcc-HI E1/E2 complexes from lysates of HEK293 cells transfected with an E1/E2 expression plasmid (hepatitis C virus genotype 1a, strain TNcc-HI) (UniProt P26664). The description is as above.
For test [4], the target named is DBNcc-HI E1/E2 complexes from lysates of HEK293 cells transfected with an E1/E2 expression plasmid (hepatitis C virus genotype 3a, strain DBNcc-HI) (UniProt Q81258). Kind of test: ELISA on lectin-captured E1/E2 complexes, negative control (FIG. 12).
For test [5], the target named is J6cc-HI E1/E2 complexes from lysates of HEK293 cells transfected with an E1/E2 expression plasmid (hepatitis C virus genotype 2a, strain J6cc-HI) (UniProt P26660). The test is described as above.
Test [6] has as its target TNcc-HI E1/E2 complexes from lysates of HEK293 cells transfected with an E1/E2 expression plasmid (hepatitis C virus genotype 1a, strain TNcc-HI) (UniProt P26664). The test is described as above.
Test [7] deals with DBNcc-HI E1/E2 complexes from lysates of HEK293 cells transfected with an E1/E2 expression plasmid (hepatitis C virus genotype 3a, strain DBNcc-HI) (UniProt Q81258). Nature of the test: ELISA on lectin-captured E1/E2 complexes, negative control (FIG. 13).
For test [8], the target named is J6cc-HI E1/E2 complexes from lysates of HEK293 cells transfected with an E1/E2 expression plasmid (hepatitis C virus genotype 2a, strain J6cc-HI) (UniProt P26660). The description is as above.
Test [9] addresses TNcc-HI E1/E2 complexes from lysates of HEK293 cells transfected with an E1/E2 expression plasmid (hepatitis C virus genotype 1a, strain TNcc-HI) (UniProt P26664). The test is described as above.
For test [10], the target named is envelope proteins E1/E2 of high-yield genotype 1a recombinant virus TNcc-HI (hepatitis C virus genotype 1a, strain TNcc-HI) (UniProt P26664). Nature of the test: cell-based or functional assay.
In test [11] the target is envelope proteins E1/E2 of high-yield genotype 2a recombinant virus J6cc-HI (hepatitis C virus genotype 2a, strain J6cc-HI) (UniProt P26660). Kind of test: cell-based or functional assay.
The target in test [12] is envelope proteins E1/E2 of high-yield genotype 3a recombinant virus DBNcc-HI (hepatitis C virus genotype 3a, strain DBNcc-HI) (UniProt Q81258). Kind of test: cell-based or functional assay.
Test [13] addresses envelope proteins E1/E2 of the genotype 1a HCV seed stock derived from TNcc-PP-18 (hepatitis C virus genotype 1a, strain TNcc) (UniProt P26664). Kind of test: cell-based or functional assay.
Test [14] deals with envelope proteins E1/E2 of the original genotype 3a recombinant virus DBN3acc (hepatitis C virus genotype 3a, strain DBN3acc) (UniProt Q81258). Kind of test: cell-based or functional assay.

In the case of “ECL sheep anti-mouse IgG horseradish-peroxidase linked whole antibody (GE Healthcare)”, the OD at 450 nm in test [1], in [2], in [3], in test [4], in test [5] and in test [6] was 0.05 OD in each case. Also, the OD at 450 nm in [7], in test [8] and in [9] was 0.05 OD throughout.
For the substance human monoclonal antibody AR3A, the results for the fold increased neutralization sensitivity against 1a(TN) in test [10] and in test [13] were 300 fold and 3 fold, respectively. Moreover, the fold increased neutralization sensitivity against 2a(J6) in [11] came to 440 fold. For the same substance, the fold increased neutralization sensitivity against 3a(DBN) in test [12] came to 1250 fold; in test [14] it was 167 fold.
For human monoclonal antibody AR4A, in that order: 2400 fold, 15 fold, 12 fold, 220 fold and 22 fold.
